Results as given in PMC4935545 (Molecular cell, 2016).

Legend:
mCLI-Mis18α (human) = mCLI-Mis18α (human) (UniProt Q9NYP9)
[1] = target: Strep-tagged Mis18β (human) (UniProt O43482); test: SEC + other: glycerol gradient sedimentation
[2] = target: His-tagged Mis18α (human) (UniProt Q9NYP9); test: SEC + other: glycerol gradient sedimentation
MBP-HJURP^R1 (human) [3] = target: MBP-HJURP^R1 (human) (UniProt Q8NCD3); test: SEC + other: glycerol gradient sedimentation
MBP-HJURP^R1 (human) [4] = target: MBP-HJURP^R1 (human) (UniProt Q8NCD3); test: pull-down
[5] = target: the molecule itself; test: SEC + other: glycerol gradient sedimentation

Chain of His-tagged Mis18α (Q9NYP9 whole entry): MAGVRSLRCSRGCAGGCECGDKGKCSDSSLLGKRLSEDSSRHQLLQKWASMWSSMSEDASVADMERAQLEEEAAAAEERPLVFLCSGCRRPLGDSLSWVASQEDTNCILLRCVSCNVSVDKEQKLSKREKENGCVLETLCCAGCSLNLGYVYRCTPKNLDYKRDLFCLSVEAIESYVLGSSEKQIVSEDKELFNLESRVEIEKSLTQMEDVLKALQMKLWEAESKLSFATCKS
Chain of MBP-HJURP^R1 (human) (Q8NCD3 348-555): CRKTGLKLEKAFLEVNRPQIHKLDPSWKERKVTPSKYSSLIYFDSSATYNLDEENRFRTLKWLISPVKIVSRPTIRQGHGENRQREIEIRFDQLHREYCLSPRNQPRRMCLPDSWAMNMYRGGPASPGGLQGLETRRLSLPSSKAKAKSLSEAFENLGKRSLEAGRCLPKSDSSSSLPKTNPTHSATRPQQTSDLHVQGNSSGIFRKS
Chain of Strep-tagged Mis18β (O43482 whole entry): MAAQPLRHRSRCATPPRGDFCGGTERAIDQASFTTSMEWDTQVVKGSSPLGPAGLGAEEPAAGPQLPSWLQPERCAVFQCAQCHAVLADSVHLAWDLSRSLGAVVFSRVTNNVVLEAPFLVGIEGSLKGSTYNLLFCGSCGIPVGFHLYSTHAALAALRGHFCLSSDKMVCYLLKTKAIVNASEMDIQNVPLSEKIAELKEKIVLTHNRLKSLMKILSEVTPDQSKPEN
Chain of Strep-tagged Mis18β (human) (O43482 whole entry): as above
Chain of GFP-Mis18β (O43482 whole entry): as above
Chain of mCLI-Mis18α (human) (Q9NYP9 whole entry): as the sequence (Q9NYP9 whole entry) above
Chain of Mis18α-β heterotetramer (preformed from recombinant Mis18α and Mis18β) (Q9NYP9 whole entry): as above
Chain of Mis18α-β heterotetramer (preformed from recombinant Mis18α and Mis18β) (O43482 whole entry): as the sequence (O43482 whole entry) above

Row | stoichiometry N [1] | stoichiometry N (MBP-HJURP^R1 (human) [3]) | Molecule | also measured
1 | – | – | GFP-Mis18β (from UniProt O43482 1-229) (natural protein) | percent of transfected cells with recruitment to the array (mCLI-Mis18α (human)): 100%
2 | 1 | 1 | His-tagged Mis18α (from UniProt Q9NYP9 1-233) (natural protein) | stoichiometry N [2]: 2
3 | – | – | Mis18α-β heterotetramer (preformed from recombinant Mis18α and Mis18β) (from UniProt Q9NYP9 1-233; O43482 1-229) (complex) | fold binding against Mis18α or Mis18β alone (MBP-HJURP^R1 (human) [4]): 2 fold
4 | 2 | 1 | Strep-tagged Mis18β (from UniProt O43482 1-229) (natural protein) | –
5 | – | – | S. pombe Mis18 (recombinant) (natural protein, UniProt Q9P802 1-194, looked up) MSQTETSHSGYIDFKKESQPSVFQCKKCFQIVGDSNAWVISHREYLSFTLSDAVENSVRVEDTFKRSDDGLCVYSELSCTRCNEVIGKVYNSTPIYLDDIRDMYTFSMDKLQAYQLGNKTVNPEGLTRYQVDLEMREDIIKLKSFCLSLYEKFELHDETLRSVKETISSLKKPKIEGKEGKKEKARTYSKRTRK | stoichiometry N [5]: 4
